This is an account of results in patent US20240285749A1 (published 2024).

In the test the target is HA ectodomain trimer (UniProt Q289M7 18-528). The test can be described thus: Octet. (BLI is a label-free optical method that tracks binding on a fibre tip over time.)

Where only a bound is given, the exact number is not on record here.

B1: CR9114 (Fab, V domains shown)
VH: QVQLVQSGAEVKKPGSSVKVSCKSSGGTSNNYAISWVRQAPGQGLDWMGGISPIFGSTAYAQKFQGRVTISADIFSNTAYMELNSLTSEDTAVYFCARHGNYYYYSGMDVWGQGTTVTVSS
VL: SYVLTQPPAVSGTPGQRVTISCSGSDSNIGRRSVNWYQQFPGTAPKLLIYSNDQRPSVVPDRFSGSKSGTSASLAISGLQSEDEAEYYCAAWDDSLKGAVFGGGTQLTVL
One may read the Kd as the equilibrium constant for the complex coming apart. Read a low Kd as higher affinity. Turning to B1, the Kd was less than 1 pM.
